Experiment [1] deals with Cno FHA-DIL-PDZ protein (aa 372–1110) (Drosophila) (UniProt Q24279). The experiment in a line: SEC-MALS; Superdex 200, 0.5 ml/min; for the DIL domain: 100 ul at 5.0 mg/ml injected, 300 mM NaCl, 25 mM Tris-HCl pH 8.5, 1 mM MgCl2, 0.1% beta-mercaptoethanol, 0.2 g/l sodium azide; monomer and homodimer peaks; conditions for FHA-DIL-PDZ not given.
The target in experiment [2] is Cno DIL domain (aa 613–1006) (Drosophila) (UniProt Q24279). The experiment is described as above.

The term stoichiometry N denotes a count of units in the complex or per binding partner.

Turning to “Cno FHA-DIL-PDZ protein (aa 372–1110) (from UniProt Q24279 372-1110) (domain or fragment)”, in experiment [1], the percent of injected protein eluted as homodimer came out at 7% and the stoichiometry N came to 2.
As for “Cno DIL domain (aa 613–1006) (from UniProt Q24279 613-1006) (domain or fragment)”, in experiment [2], the percent of injected protein eluted as homodimer was 27% and the stoichiometry N worked out at 2.

(Values after paper PMC11006394.)
